B1: 13-bp DNA (dsDNA)
DNA 1: GTACCTGTAGAAG
DNA 2: CTTCTACAGGTAC
B2: 11-bp DNA with 2-nt overhang (dsDNA)
DNA 1: ACACACGCCGAGC
DNA 2: GCTCGGCGTGT

What was measured:
bsKu core (wild type) [1] = molecular target: T1, bsKu core (wild type) (Bacillus subtilis, UniProt O34859 18-244); experiment: cryo-EM; 2.74 A; two blunt ends bridged by two Ku homodimers; EMSA: 20 mM HEPES pH 7.5, 150 mM KCl, 1 mM DTT, 50 nM DNA, 30 min at 4°C, 15% native PAGE in 0.5x TBE, SYBR Gold; SEC: same buffer, protein:DNA 1:2, 1 h at 4°C, Superdex 75; conditions: protein: recombinant, tags: N-terminal 8xHis-MBP, cleaved with PreScission protease, chain copies: 2
T1 sequence: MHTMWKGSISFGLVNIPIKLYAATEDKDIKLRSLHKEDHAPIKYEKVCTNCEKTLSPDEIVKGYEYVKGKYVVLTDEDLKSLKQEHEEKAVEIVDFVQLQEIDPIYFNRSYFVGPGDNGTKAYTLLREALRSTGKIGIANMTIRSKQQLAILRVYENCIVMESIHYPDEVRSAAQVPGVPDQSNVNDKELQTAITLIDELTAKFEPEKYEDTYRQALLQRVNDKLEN

bsKu core (wild type) [2] = molecular target: T1, bsKu core (wild type); experiment: size-exclusion chromatography; 1:1 complex, no oligomerization; EMSA: 20 mM HEPES pH 7.5, 150 mM KCl, 1 mM DTT, 50 nM DNA, 30 min at 4°C, 15% native PAGE in 0.5x TBE, SYBR Gold; SEC: same buffer, protein:DNA 1:2, 1 h at 4°C, Superdex 75; conditions: protein: recombinant; tags: N-terminal 8xHis-MBP, cleaved with PreScission protease; chain copies: 2; 2-nt overhang; main text says at one end

Binder	binding result (bsKu core (wild type) [1])	binding result (bsKu core (wild type) [2])
B1	binds	
B2		binds
